Assay results from US20260070974A1 (NONA BIOSCIENCES SUZHOU, published 2026).

Assays:
[1] = target: T1, cynomolgus monkey Siglec-15-his protein (Acrobiosystems, Cat #: SG5-C52H6) (cynomolgus monkey, UniProt Q6ZMC9 20-263 (human entry)); assay: ELISA, coated cynomolgus monkey Siglec-15-his
T1 construct: Bought protein; also called cynomolgus monkey Siglec-15 protein; not shown: his tag
T1 chain: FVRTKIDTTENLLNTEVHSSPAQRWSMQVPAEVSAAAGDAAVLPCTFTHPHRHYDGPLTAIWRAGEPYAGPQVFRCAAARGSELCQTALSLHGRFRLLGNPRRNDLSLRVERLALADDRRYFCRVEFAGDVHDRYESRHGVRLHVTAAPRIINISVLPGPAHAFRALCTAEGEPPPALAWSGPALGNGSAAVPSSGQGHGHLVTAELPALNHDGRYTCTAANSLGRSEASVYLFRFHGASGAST
Procedure: (§1) 1 g/mL cynomolgus monkey Siglec-15-his protein (Acrobiosystems, Cat #: SG5-C52H6) dissolved in PBS was added to an ELISA plate at 100 μL/well for coating and the plate was incubated overnight at 4° C. The ELISA plate was then blocked with PBST (PBS+0.05% Tween 20) containing 2% BSA at 200 μL/well and incubated at 37° C. for 1 h. The ELISA plate was washed 4 times with PBST. The anti-Siglec-15 antibody diluted in a gradient (5-fold dilution, starting concentration: 6.67 nM) was added to the ELISA plate at 100 µL/well and the plate was incubated at 37° C. for 1 h. The ELISA plate was washed 4 times with PBST. The goat anti-human IgG (H+L)-HRP (1:5000, Jackson, Cat #: 109-035-088) was added at 100 μL/well and the plate was incubated at 37° C. for 1 h. The ELISA plate was washed 4 times with PBST. The TMB substrate (Biopanda, Cat #: TMB-S-003) was added at 100 μL/well, and the plate was incubated at room temperature for 5 min, and then the stop buffer (Solarbio, Cat #: C1058) was added at 100 μL/well to stop the reaction.

[2] = target: T2, mouse Siglec-15-his protein (Acrobiosystems, Cat #: SG5-M52H7) (mouse); assay: ELISA, coated mouse Siglec-15-his
T2 construct: Bought protein; also called mouse Siglec-15 protein
Procedure: as §1, with “[…] mouse” for “g/mL cynomolgus monkey”, “#: SG5-M52H7)” for “#: SG5-C52H6)”, “100 μL/well” for “100 µL/well”, “Jackson, Cat:” for “Jackson, Cat #:”, “(Biopanda, Cat:” for “(Biopanda, Cat #:”

[3] = target: T3, human Siglec-15 ECD-his protein (Acrobiosystems, Cat #: SG5-H52H3) (human, UniProt Q6ZMC9 20-263); assay: ELISA, coated human Siglec-15 ECD-his
T3 construct: Bought protein; only its extracellular domain stood in the assay; also called human Siglec-15 protein; recombinant human Siglec-15 protein; not shown: his tag
T3 sequence: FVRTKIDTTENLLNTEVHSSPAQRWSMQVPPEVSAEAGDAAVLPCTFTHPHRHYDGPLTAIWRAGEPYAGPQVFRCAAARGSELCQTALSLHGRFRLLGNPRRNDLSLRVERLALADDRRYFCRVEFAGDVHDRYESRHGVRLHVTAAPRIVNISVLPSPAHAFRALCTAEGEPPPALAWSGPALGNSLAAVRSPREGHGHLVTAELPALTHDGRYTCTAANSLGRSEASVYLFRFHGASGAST
Procedure: as §1, with “human Siglec-15 ECD-his” for “cynomolgus monkey Siglec-15-his”, “SG5-H52H3)” for “SG5-C52H6)”, “μL/well” for “µL/well”

[4] = target: T4, human Siglec-15 on CHO-K1/human Siglec-15 cells (KYinno, Beijing) (human, UniProt Q6ZMC9 20-328); assay: flow cytometry on CHO-K1/human Siglec-15 cells
T4 sequence: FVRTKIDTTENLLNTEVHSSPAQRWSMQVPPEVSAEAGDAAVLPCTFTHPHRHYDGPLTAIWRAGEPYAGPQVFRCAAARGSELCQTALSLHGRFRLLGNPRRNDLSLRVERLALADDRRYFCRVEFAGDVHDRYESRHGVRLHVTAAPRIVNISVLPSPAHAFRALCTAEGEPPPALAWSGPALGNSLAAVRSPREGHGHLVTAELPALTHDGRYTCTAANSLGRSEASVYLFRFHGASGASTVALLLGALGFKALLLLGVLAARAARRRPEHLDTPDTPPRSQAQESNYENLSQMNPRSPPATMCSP
Procedure: CHO-K1/human Siglec-15 cells (KYinno, Beijing) were adjusted to a density of 1×10⁶/mL with PBS, and the cell suspension was added to a 96-well V-bottom plate at 100 μL/well. The 96-well V-bottom plate was centrifuged at 1000 rpm for 5 min and washed once with PBS+2% FBS. The cells were resuspended in […] of antibody diluted in a gradient (5-fold dilution, starting concentration: 500 nM) and incubated at 4° C. for 1 h, and PR300066 and hIgG1 were used as positive control and negative control, respectively. After 1 h, the cells were washed twice with PBS+2% FBS. The cells were incubated with 100 μL of Alexa Fluor 488 goat anti-human IgG (Jackson, Cat #: 109-545-098) at 4° C. for 1 h in the dark and then washed twice with PBS+2% FBS. The cells were then resuspended in 200 μL of PBS+2% FBS. The fluorescence intensity of the cells was analyzed using a BD FACSCanto™ II flow cytometer.

[5] = target: T3, human Siglec-15 ECD-his protein …; assay: BLI (Octet RED96), antibody on AHC sensor, Siglec-15 ECD-his as analyte
Procedure: Recombinant Human Siglec-15 Protein Affinity was determined using an Octet RED96 instrument (ForteBio) and an anti-human IgG Fc capture sensor (AHC biosensor, ForteBio, Cat #: 18-5060) according to the detailed procedures and methods provided by the manufacturer. Specifically, candidate antibodies were each diluted to a final concentration of 6 µg/mL and directly immobilized on AHC biosensors for kinetic measurements. The antigenic protein Siglec-15 ECD-his protein (Acrobiosystems, Cat #: SG5-H52H3) was diluted with 10× Kinetics buffer to 3 concentrations of 60 nM, 30 nM, and 15 nM separately and injected as the analyte for 120 s with a dissociation time of 400 s and then subjected to regeneration with 10 mM glycine HCl (pH 1.5) for 15 s. The association rate (kon) and dissociation rate (kdis) were calculated using a simple one-to-one Languir binding model (Octet Red96 data analysis software). The equilibrium dissociation constant (kD) was calculated as the ratio of kdis/kon.

B1: PR300526 (antibody, human IgG1, kappa, V domains shown)
VH: QVQLVQSGAEVKKPGASVKVSCKASGYTFTDYYMHWVRQAPGQGLEWMGWINPNSDGTNYAQRFQGRVTMTRDTSISTAYMELSRLRSDDTAVYYCARGRLLRFFDWLDVMDAWGQGTSVTVSS
VL: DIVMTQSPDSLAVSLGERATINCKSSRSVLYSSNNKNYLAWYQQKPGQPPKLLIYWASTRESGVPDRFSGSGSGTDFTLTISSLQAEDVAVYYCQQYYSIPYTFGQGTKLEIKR
Q: With B1 as the binder, how does the EC50 [1] read?
A: 71 pM

Q: And the EC50 [2]?
A: 104 pM

Q: What about the EC50 [3] of the same binder?
A: 20 pM

B2: PR300659 (antibody, human IgG1, kappa, V domains shown)
VH: QVQLVESGGGVVQPGRSLRLSCAASGFIFSSYDIYWVRQAPGKGLEWVAVIWHDGSNKYYADSVKGRFTISRDNSKNTVYLQMNSLRAEDTAVYYCARDTHSYGSRIYYDYNYGMDVWGQGTTVTVSS
VL: DIQMTQSPSSLSASVGDRVSITCRASQSISSYLNWYQQKPGKAPKLLIYAASSLQSGVPSRFSGSGSGADFTLTISSLQPEDFATYYCQQTYSPPFTFGPGTKVDIKR
Q: For B2, which EC50 [4] is on record?
A: 3450 pM

Q: And the “Maximum (MFI)” value [4]?
A: 24000 MFI

Q: And the EC50 [1]?
A: ~11 pM

Q: And the EC50 [2]?
A: 13 pM

Q: And the Kd [5]?
A: 3.05 pM

Q: What about the koff [5] of the same binder?
A: 3.25e-06 s⁻¹

Q: And the kon [5]?
A: 1.07e+06 M⁻¹ s⁻¹

Q: And the EC50 [3]?
A: 10 pM

B3: PR300670 (antibody, human IgG1, kappa, V domains shown)
VH: QVQLVESGGGVVQPGRSLRLSCVASGFTFSTYGIHWVRQAPGKGLDWVSVIWYDGSHKYYADSVQDRFTISRDNSKNTLYLQMNSLRAEDTAVYYCAREGMITMVRGVIIDYQYHGMDVWGQGTTVTVSS
VL: DIQMTQSPSTLSASVGDRVTITCRASQSIGRRLAWYQQKPGKAPKLLIYKASSLESGVPSRFSGSGSGTEFTLTISSPQPDDFATYYCQQYHSYSYTFGQGTKLEIKR
Q: For B3, which EC50 [4] is on record?
A: 1490 pM

Q: And the “Maximum (MFI)” value [4]?
A: 16600 MFI

Q: And the EC50 [1]?
A: 25 pM

Q: And the EC50 [2]?
A: 79 pM

Q: What about the Kd [5] of the same binder?
A: 85.8 pM

Q: What about the koff [5] of the same binder?
A: 3.09e-05 s⁻¹

Q: And the kon [5]?
A: 361000 M⁻¹ s⁻¹

Q: And the EC50 [3]?
A: 18 pM
